In FireProtDB (doi:10.1093/protein/gzl019):

B1: Cold shock protein CspB, P41016 (parent)
chain: MQRGKVKWFNNEKGYGFIEVEGGSDVFVHFTAIQGEGFKTLEEGQEVSFEIVQGNRGPQAANVVKL

Variants of: B1
Conditions: Bacillus caldolyticus, pH 7, Thermal, Na cacodylate/HCl 0.1 M, reversible: Yes, structure 1C9O, whole UniProt chain shown

| Variant | ddG of mutation (higher = less stable) (75 °C, CD, NaCl 0-2 M) | heat capacity change of unfolding (75 °C, CD, NaCl 0-2 M) | ddG of mutation (higher = less stable) (75 °C, CD, NaCl 2 M) | heat capacity change of unfolding (75 °C, CD, NaCl 2 M) | ddG of mutation (higher = less stable) (75 °C, CD) | heat capacity change of unfolding (75 °C, CD) | Tm (CD) | change of melting temperature, mutant - wild type (higher = more stable) (CD) | heat capacity change of unfolding (CD) | unfolding enthalpy (van 't Hoff) (CD) | ddG of mutation (higher = less stable) (75 °C, DSC, NaCl 0-2 M) | heat capacity change of unfolding (75 °C, DSC, NaCl 0-2 M) | ddG of mutation (higher = less stable) (75 °C, DSC, NaCl 2 M) | heat capacity change of unfolding (75 °C, DSC, NaCl 2 M) | ddG of mutation (higher = less stable) (75 °C, DSC) | heat capacity change of unfolding (75 °C, DSC) | Tm (DSC) | change of melting temperature, mutant - wild type (higher = more stable) (DSC) | heat capacity change of unfolding (DSC) | unfolding enthalpy (calorimetric) (DSC) |
| --- | --- | --- | --- | --- | --- | --- | --- | --- | --- | --- | --- | --- | --- | --- | --- | --- | --- | --- | --- | --- |
| E50K | 0.76 kcal/mol | 0.96 kcal/mol/K | -0.26 kcal/mol | 0.96 kcal/mol/K | 0.5 kcal/mol | 0.96 kcal/mol/K | 73.5 °C | -3.4 °C | 0.96 kcal/mol/K | 43.3 kcal/mol | – | – | – | – | – | – | – | – | – | – |
| E36K | 0.98 kcal/mol | 0.96 kcal/mol/K | -0.79 kcal/mol | 0.96 kcal/mol/K | 0.19 kcal/mol | 0.96 kcal/mol/K | 76 °C | -0.9 °C | 0.96 kcal/mol/K | 45.6 kcal/mol | – | – | – | – | – | – | – | – | – | – |
| E46K | – | – | – | – | – | – | – | – | – | – | 0.43 kcal/mol | 0.96 kcal/mol/K | 0.22 kcal/mol | 0.96 kcal/mol/K | 0.65 kcal/mol | 0.96 kcal/mol/K | 74 °C | -2.9 °C | 0.96 kcal/mol/K | 114 kcal/mol |
| E12K | 0.1 kcal/mol | 0.96 kcal/mol/K | 0.29 kcal/mol | 0.96 kcal/mol/K | 0.43 kcal/mol | 0.96 kcal/mol/K | – | – | – | – | – | – | – | – | – | – | – | – | – | – |
| E21K | 0.43 kcal/mol | 0.96 kcal/mol/K | -0.17 kcal/mol | 0.96 kcal/mol/K | 0.26 kcal/mol | 0.96 kcal/mol/K | 75.4 °C | -1.5 °C | 0.96 kcal/mol/K | 49 kcal/mol | – | – | – | – | – | – | – | – | – | – |
| R56E | -0.53 kcal/mol | 0.96 kcal/mol/K | -0.24 kcal/mol | 0.96 kcal/mol/K | -0.76 kcal/mol | 0.96 kcal/mol/K | – | – | – | – | – | – | – | – | – | – | – | – | – | – |
| H29E | – | – | – | – | – | – | – | – | – | – | 0.29 kcal/mol | 0.96 kcal/mol/K | 0.48 kcal/mol | 0.96 kcal/mol/K | 0.76 kcal/mol | 0.96 kcal/mol/K | – | – | – | – |
| N55K | 0.29 kcal/mol | 0.96 kcal/mol/K | -0.19 kcal/mol | 0.96 kcal/mol/K | -0.1 kcal/mol | 0.96 kcal/mol/K | 77.7 °C | 0.8 °C | 0.96 kcal/mol/K | 55.2 kcal/mol | – | – | – | – | – | – | – | – | – | – |
